The results in this text go back to US20120277142A1 (HANALL BIOPHARMA, published 2012).

Changes are numbered by the printed parent chain.

B1: TNFRI126-A2 (receptor)
chain: MDSVCPQGKYIHPQNNSICCTKCHKGTYLYNDCPGPGQDTDCRECESGSFTAIENFLPACLSCSKCRKEMGQVEISSCTVDRDTVCGCRKNQYRHYWSENLFQCFNCSLCLNGTVHLSCQEKQNTVC
notes: Met-TNFRI126 mutant made in E. coli
B2: TNFRI126-A6 (receptor)
chain: B1 chain with I53L
notes: as for B1
B3: TNFRI126-A3 (receptor)
chain: B1 chain with I53G
notes: as for B1
B4: TNFRI126-A5 (receptor)
chain: B1 chain with I53V
notes: as for B1
B5: TNFRI126-A1 (receptor)
chain: B1 chain with I53S
notes: as for B1
B6: TNFRI126-A10 (receptor)
chain: B1 chain with I53W
notes: as for B1
B7: TNFRI126-A12 (receptor)
chain: B1 chain with I53N
notes: as for B1
B8: TNFRI126-A7 (receptor)
chain: B1 chain with I53P
notes: as for B1
B9: TNFRI126-A15 (receptor)
chain: B1 chain with I53Y
notes: as for B1
B10: TNFRI126-A9 (receptor)
chain: B1 chain with I53M
notes: as for B1
B11: TNFRI126-A4 (receptor)
chain: B1 chain with I53A
notes: as for B1
B12: TNFRI126-A14 (receptor)
chain: B1 chain with I53T
notes: as for B1
B13: TNFRI126-A13 (receptor)
chain: B1 chain with I53Q
notes: as for B1
B14: TNFRI126-A8 (receptor)
chain: B1 chain with I53F
notes: as for B1
B15: TNFRI171-S31 (receptor)
chain: MDSVCPQGKYIHPQNNSICCTKCHKGTYVYNDCPGPGQDTDCRECESGSFTAIENFLPACLSCSKCRKEMGQVEISSCTVDRDTVCGCRKNQYRHYWSENLFQCFNCSLCLNGTVHLSCQEKQNTVCTCHAGFFLRENECVSCSNCKKSLECTKLCLPQIENVKGTEDSGTT
notes: Met-TNFRI171 superlead mutant made in E. coli
B16: TNFRI171-S47 (receptor)
chain: B15 chain with I53M, A59G
notes: as for B15
B17: TNFRI171-S32 (receptor)
chain: B15 chain with V29L, K122Q
notes: as for B15
B18: TNFRI171-S45 (receptor)
chain: B15 chain with V29L, I53H, D168N
notes: as for B15
B19: TNFRI171-S48 (receptor)
chain: B15 chain with E54P, A59G
notes: as for B15
B20: TNFRI171-S49 (receptor)
chain: B15 chain with V29L, E54P, A59G, K122Q
notes: as for B15
B21: TNFRI171-S46 (receptor)
chain: B15 chain with A59G
notes: as for B15
B22: TNFRI171-S50 (receptor)
chain: B15 chain with V29L, E54P, A59G, K122N
notes: as for B15
B23: TNFRI171-S38 (receptor)
chain: B15 chain with V29L, I53M, K122N
notes: as for B15
B24: TNFRI171-S34 (receptor)
chain: B15 chain with V29L, E161Q
notes: as for B15
B25: TNFRI171-S35 (receptor)
chain: B15 chain with V29L, D168N
notes: as for B15
B26: TNFRI171-S56 (receptor)
chain: B15 chain with I53M, K122Q
notes: as for B15
B27: TNFRI171-S41 (receptor)
chain: B15 chain with I53H
notes: as for B15
B28: TNFRI171-S63 (receptor)
chain: B15 chain with I53M, A59G, K122N
notes: Met-TNFRI171 superlead mutant made in E. coli; also called TNFRI-S63
B29: TNFRI171-S51 (receptor)
chain: B15 chain with V29L, E54P, A59G, E161Q
notes: as for B15
B30: TNFRI171-S36 (receptor)
chain: B15 chain with I53M
notes: as for B15
B31: TNFRI171-S61 (receptor)
chain: B15 chain with I53H, D168N
notes: as for B15
B32: TNFRI171-S43 (receptor)
chain: B15 chain with V29L, I53H, K122N
notes: as for B15
B33: TNFRI171-S62 (receptor)
chain: B15 chain with A59G, K122Q
notes: as for B15
B34: TNFRI171-S55 (receptor)
chain: B15 chain with D168N
notes: as for B15
B35: TNFRI171-S60 (receptor)
chain: B15 chain with I53H, K122N
notes: as for B15
B36: TNFRI171-S53 (receptor)
chain: B15 chain with K122Q
notes: as for B15
B37: TNFRI171-S57 (receptor)
chain: B15 chain with I53M, K122N
notes: as for B15
B38: TNFRI171-S44 (receptor)
chain: B15 chain with V29L, I53H, E161Q
notes: as for B15
B39: TNFRI171-S33 (receptor)
chain: B15 chain with V29L, K122N
notes: as for B15
B40: TNFRI171-S42 (receptor)
chain: B15 chain with V29L, I53H, K122Q
notes: as for B15
B41: TNFRI171-S52 (receptor)
chain: B15 chain with V29L, E54P, A59G, D168N
notes: as for B15
B42: TNFRI171-S39 (receptor)
chain: B15 chain with V29L, I53M, E161Q
notes: as for B15
B43: TNFRI171-S59 (receptor)
chain: B15 chain with I53H, K122Q
notes: as for B15
B44: TNFRI171-S58 (receptor)
chain: B15 chain with I53M, D168N
notes: as for B15
B45: TNFRI171-S37 (receptor)
chain: B15 chain with V29L, I53M, K122Q
notes: as for B15
B46: TNFRI171-S40 (receptor)
chain: B15 chain with V29L, I53M, D168N
notes: as for B15
B47: TNFRI171-S54 (receptor)
chain: B15 chain with K122N
notes: as for B15

The first assay deals with T1, TNF-α (UniProt P01375 77-233, limits assumed).
T1 construct: also called tumor necrosis factor; ligand
Briefly: competition ELISA: sample vs plate-bound TNFRI190 for TNF-α, from IC50, relative to wild-type TNFRI126. Here is the method: (§1) Each well was washed three times with 300 μL of washing buffer (0.05% Tween-20, PBS, pH 7.4) and incubated at room temperature for 2 hours with 300 μL of a blocking buffer (5% skim milk, PBS, pH 7.4). Then, each well was washed as mentioned above. A sample of interest was diluted to concentrations of 500 nM, 125 nM, 31 nM, 7.8 nM, 1.9 nM, 0.48 nM, 0.12 nM, and 0.03 nM in series and loaded in an amount of 100 μL into each well in duplicate. To each well was added 100 μL of 50 ng/ml TNF-α, followed by incubation at room temperature for 2 hours. After the wells were washed with a washing buffer, 100 μg/mL anti-TNF-α antibody solution was diluted 1/1000, added in an amount of 100 μL per each well, and incubated at room temperature for 2 hours. After the plates were washed with a washing buffer, a substrate was added in an amount of 100 μL to each well and reacted at room temperature for 15 min. In each well, 100 μL of the substrate 3,3′,5,5′-tetramethylbenzidine (RnD, Cat. No: DY999) was reacted at room temperature for 15 min, followed by adding 50 μL of 1.0 M sulfuric acid (Samchun Chemical, Cat. No: 52129) to each well to stop the reaction.
Affinity of Met-TNFRI and Met-TNFRI mutants for TNF-α was determined by measuring an absorbance change with concentration and evaluating IC₅₀ value by measuring an absorbance change with concentration.
B1: the “Affinity (%)” value was 829%.
As for B2, the “Affinity (%)” value turned out to be 741%.
With B3, the “Affinity (%)” value stood at 341%.
Turning to B4, the “Affinity (%)” value is 712%.
The same measure, in the same setting: in the case of B5 it was 324%.
For the molecule B6, the “Affinity (%)” value is 800%.
On to B7, for which the “Affinity (%)” value was 659%.
Turning to B8, the “Affinity (%)” value amounted to 600%.
As to B9, the “Affinity (%)” value is 941%.
As to B10, the “Affinity (%)” value came out at 941%.
For the molecule B11, the “Affinity (%)” value was determined as 524%.
Regarding B12, the “Affinity (%)” value was found to be 765%.
With B13, the “Affinity (%)” value is 806%.
On to B14, for which the “Affinity (%)” value amounted to 865%.

The next assay has as its target T1, TNF-α. Briefly: competition ELISA: sample vs plate-bound TNFRI190 for TNF-α, from IC50, relative to wild-type TNFRI171. How it is done:
as §1
The affinity of the Met-TNFRI for TNF-α was assayed using the same procedure as in [Experimental Example 1]
For orientation: An ELISA detects its analyte on a solid surface through an enzyme-linked reagent.
In the case of B15, the “Relative Affinity for Ligand (%)” value came to 563%.
Still for that read-out and setting: the same measure for B16: 758%.
On to B17, for which the “Relative Affinity for Ligand (%)” value turned out to be 668%.
For B18, the “Relative Affinity for Ligand (%)” value stood at 679%.
Take B19: the “Relative Affinity for Ligand (%)” value was determined as 594%.
In the case of B20, the “Relative Affinity for Ligand (%)” value was 547%.
Still for that read-out and setting: in the case of B21 it was 805%; in that of B22, 589%.
B23: the “Relative Affinity for Ligand (%)” value was found to be 589%.
As to B24, the “Relative Affinity for Ligand (%)” value came out at 700%.
Still for that read-out and setting: in the case of B25 it was 521%.
The same measure, in the same setting: the same measure for B26: 510%.
On the same count and under the same terms, the same measure for B27: 558%.
As for B28, the “Relative Affinity for Ligand (%)” value came out at 1350%.
On the same count and under the same terms, in the case of B29 it was 537%; in that of B30, 510%; in that of B31, 778%.
With B32, the “Relative Affinity for Ligand (%)” value stood at 579%.
As for B33, the “Relative Affinity for Ligand (%)” value came to 1200%.
Regarding B34, the “Relative Affinity for Ligand (%)” value turned out to be 973%.
For B35, the “Relative Affinity for Ligand (%)” value is 775%.
As for B36, the “Relative Affinity for Ligand (%)” value came out at 1020%.
On the same count and under the same terms, the same measure for B37: 773%.
In the case of B38, the “Relative Affinity for Ligand (%)” value worked out at 694%.
Consider B39, for which the “Relative Affinity for Ligand (%)” value amounted to 568%.
B40: the “Relative Affinity for Ligand (%)” value was 416%.
With B41, the “Relative Affinity for Ligand (%)” value amounted to 626%.
On to B42, for which the “Relative Affinity for Ligand (%)” value was found to be 705%.
As to B43, the “Relative Affinity for Ligand (%)” value came to 684%.
On to B44, for which the “Relative Affinity for Ligand (%)” value came out at 978%.
On the same count and under the same terms, the same measure for B45: 668%.
As for B46, the “Relative Affinity for Ligand (%)” value turned out to be 773%.
B47: the “Relative Affinity for Ligand (%)” value worked out at 900%.
